The values that follow are results of earlier work, collected in PMC4291147, “Molecular Basis of Histone Tail Recognition by Human TIP5 PHD Finger and Bromodomain of the Chromatin Remodeling Complex NoRC” (Structure(London, England:1993), 2015).

The Kd is the concentration at which binding is half-saturated.

Where two headings read alike, the source gives them in different places.

The target of series [1] is Histone H3 K14ac peptide (Homo sapiens) (UniProt P68431).
The target is the same in series [2]. Briefly: STD-NMR.
Series [3] has the same target. Briefly: ITC.

Chain of PCAF BRD (Q92831 723-827): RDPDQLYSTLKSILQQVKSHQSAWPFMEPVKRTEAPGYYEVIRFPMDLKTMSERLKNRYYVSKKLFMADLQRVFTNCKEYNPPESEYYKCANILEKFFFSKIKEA
Chain of PCAF bromodomain (Q92831 720-830): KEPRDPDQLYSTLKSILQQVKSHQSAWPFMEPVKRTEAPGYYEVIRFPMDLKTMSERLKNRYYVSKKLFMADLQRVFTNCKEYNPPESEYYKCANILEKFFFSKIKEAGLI
Chain of SMARCA4 BRD (P51532 1453-1564): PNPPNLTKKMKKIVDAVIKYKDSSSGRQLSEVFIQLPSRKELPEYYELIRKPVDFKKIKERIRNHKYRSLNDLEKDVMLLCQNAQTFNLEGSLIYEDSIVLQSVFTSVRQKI
Chain of SMARCA4 bromodomain (P51532 1450-1567): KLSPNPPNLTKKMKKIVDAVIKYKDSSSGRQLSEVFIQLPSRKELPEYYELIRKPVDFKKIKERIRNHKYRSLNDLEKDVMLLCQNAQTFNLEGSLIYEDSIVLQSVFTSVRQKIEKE
Chain of SMARCA2 BRD (P51531 1378-1506): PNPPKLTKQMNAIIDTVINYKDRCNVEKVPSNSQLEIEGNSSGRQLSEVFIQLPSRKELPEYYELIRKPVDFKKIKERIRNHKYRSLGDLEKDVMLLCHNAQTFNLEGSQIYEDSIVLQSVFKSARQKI
Chain of PB1 BRD 2 (Q86U86 177-287): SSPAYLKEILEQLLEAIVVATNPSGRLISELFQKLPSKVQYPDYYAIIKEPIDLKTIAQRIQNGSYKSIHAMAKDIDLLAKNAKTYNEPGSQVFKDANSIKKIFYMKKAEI
Chain of PB1 BRD2 (Q86U86 177-287): as above
Chain of SMARCA2 bromodomain (P51531 1375-1509): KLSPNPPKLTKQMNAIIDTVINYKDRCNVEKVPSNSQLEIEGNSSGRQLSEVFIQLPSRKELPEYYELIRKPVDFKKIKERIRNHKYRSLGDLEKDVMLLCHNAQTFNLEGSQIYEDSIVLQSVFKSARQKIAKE

With PB1 BRD2 (from UniProt Q86U86), the Kd in series [1] was 500 µM.

Take PB1 BRD 2 (from UniProt Q86U86): in series [2], the Kd was 500 µM.

Take PCAF BRD (from UniProt Q92831): the Kd in series [2] was 128 µM; in series [3], 188 µM.

On to PCAF bromodomain (from UniProt Q92831), for which the Kd is 128 µM in series [2] and 188 µM in series [3].

Regarding SMARCA2 BRD (from UniProt P51531), in series [3], the Kd is 285 µM.

Turning to “SMARCA2 bromodomain (from UniProt P51531)”, the Kd in series [3] is 285 µM.

As for SMARCA4 BRD (from UniProt P51532), in series [2], the Kd is 1200 µM.

Consider “SMARCA4 bromodomain (from UniProt P51532)”, for which the Kd in series [2] is 1200 µM.
